Reference: article PMC4824073, “Ribonucleoprotein particles of bacterial small non-coding RNA IsrA (IS61 or McaS) and its interaction with RNA polymerase core may link transcription to mRNA fate”

How the values were obtained:
[1] = target: RNAP core enzyme (UniProt P0A7Z4;P0A8V2;P0A8T7 1-329;1-1342;1-1407); experiment: EMSA; heparin added after complex formation (heparin-resistant); EMSA (Figs 3B, 4): 1x buffer 15 mM Tris-HCl pH 8, 100 mM KCl, 1 mM MgCl2, 1 mM DTT, 1 ug yeast RNA, 37 C 10-20 min, then heparin on ice; Fig 3A as in ref 29 without yeast RNA; pull-down: 10 mM Tris-HCl pH 7.8, 200 mM KCl, 1 mM MgCl2, 5% glycerol, 1 mM DTT, 4 C, heparin 100 ug/ml wash; conditions: protein: native; chain copies: 2;1;1; label: 32P; three stem-loops
[2] = target: RNAP core enzyme;sigma70 (Escherichia coli?;Escherichia coli?, UniProt P0A7Z4;P0A8V2;P0A8T7;P00579 1-329;1-1342;1-1407;1-613, |); experiment: as above; conditions: protein: native;recombinant; tags: ;; chain copies: 2;1;1;1; label: 32P; three stem-loops
[3] = target: RNAP (core or holo not stated) (UniProt P0A7Z4;P0A8V2;P0A8T7 1-329;1-1342;1-1407); experiment: competition; unlabeled IsrA 15-fold excess vs labeled IsrA; yeast RNA, heparin after; EMSA (Figs 3B, 4): 1x buffer 15 mM Tris-HCl pH 8, 100 mM KCl, 1 mM MgCl2, 1 mM DTT, 1 ug yeast RNA, 37 C 10-20 min, then heparin on ice; Fig 3A as in ref 29 without yeast RNA; pull-down: 10 mM Tris-HCl pH 7.8, 200 mM KCl, 1 mM MgCl2, 5% glycerol, 1 mM DTT, 4 C, heparin 100 ug/ml wash; conditions: protein: native; chain copies: 2;1;1; label: 32P; three stem-loops

Measured: binding result

RNAP (core or holo not stated), sequence (P0A7Z4 whole entry, chain 1 of 3): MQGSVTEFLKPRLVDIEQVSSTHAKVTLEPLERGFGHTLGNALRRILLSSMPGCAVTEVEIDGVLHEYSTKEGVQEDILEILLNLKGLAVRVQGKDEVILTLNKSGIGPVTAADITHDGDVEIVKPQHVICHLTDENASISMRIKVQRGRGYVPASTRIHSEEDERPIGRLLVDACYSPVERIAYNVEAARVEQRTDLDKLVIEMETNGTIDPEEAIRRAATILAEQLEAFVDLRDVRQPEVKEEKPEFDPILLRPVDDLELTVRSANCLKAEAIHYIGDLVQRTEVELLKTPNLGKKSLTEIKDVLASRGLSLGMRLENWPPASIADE
RNAP (core or holo not stated), sequence (P0A8V2 whole entry, chain 2 of 3): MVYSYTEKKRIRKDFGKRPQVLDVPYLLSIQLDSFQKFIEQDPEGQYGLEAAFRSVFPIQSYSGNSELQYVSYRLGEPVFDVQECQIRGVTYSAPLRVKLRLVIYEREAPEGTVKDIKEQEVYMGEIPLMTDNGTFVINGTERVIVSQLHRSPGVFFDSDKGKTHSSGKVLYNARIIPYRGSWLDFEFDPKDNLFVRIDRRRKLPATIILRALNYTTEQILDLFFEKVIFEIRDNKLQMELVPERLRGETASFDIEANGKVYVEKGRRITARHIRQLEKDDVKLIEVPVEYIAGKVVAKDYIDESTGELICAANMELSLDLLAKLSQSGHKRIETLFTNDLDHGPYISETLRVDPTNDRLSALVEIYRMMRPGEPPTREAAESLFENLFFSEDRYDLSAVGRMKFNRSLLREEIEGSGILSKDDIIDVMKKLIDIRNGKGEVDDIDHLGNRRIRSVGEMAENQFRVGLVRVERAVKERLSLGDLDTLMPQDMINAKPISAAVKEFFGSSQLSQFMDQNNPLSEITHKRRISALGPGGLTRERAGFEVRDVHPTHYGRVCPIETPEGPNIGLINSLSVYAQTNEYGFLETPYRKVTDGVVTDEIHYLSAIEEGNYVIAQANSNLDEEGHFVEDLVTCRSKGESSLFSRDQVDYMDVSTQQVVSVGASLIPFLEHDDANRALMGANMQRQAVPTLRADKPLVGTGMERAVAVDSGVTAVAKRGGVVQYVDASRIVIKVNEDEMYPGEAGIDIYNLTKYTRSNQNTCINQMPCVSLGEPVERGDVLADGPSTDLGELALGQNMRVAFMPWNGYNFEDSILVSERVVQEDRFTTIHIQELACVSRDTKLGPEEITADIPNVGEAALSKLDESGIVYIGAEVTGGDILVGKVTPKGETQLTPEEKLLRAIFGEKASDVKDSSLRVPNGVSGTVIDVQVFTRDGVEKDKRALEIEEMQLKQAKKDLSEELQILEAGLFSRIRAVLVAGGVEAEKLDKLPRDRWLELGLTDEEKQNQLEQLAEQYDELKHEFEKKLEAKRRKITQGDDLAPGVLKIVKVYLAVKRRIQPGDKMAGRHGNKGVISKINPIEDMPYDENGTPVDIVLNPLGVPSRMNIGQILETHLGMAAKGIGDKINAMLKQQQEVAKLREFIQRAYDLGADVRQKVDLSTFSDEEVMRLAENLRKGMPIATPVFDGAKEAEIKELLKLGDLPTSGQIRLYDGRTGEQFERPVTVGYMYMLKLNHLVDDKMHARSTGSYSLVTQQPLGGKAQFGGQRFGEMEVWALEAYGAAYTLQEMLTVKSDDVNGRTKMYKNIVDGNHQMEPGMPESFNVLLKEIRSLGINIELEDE
RNAP (core or holo not stated), sequence (P0A8T7 whole entry, chain 3 of 3): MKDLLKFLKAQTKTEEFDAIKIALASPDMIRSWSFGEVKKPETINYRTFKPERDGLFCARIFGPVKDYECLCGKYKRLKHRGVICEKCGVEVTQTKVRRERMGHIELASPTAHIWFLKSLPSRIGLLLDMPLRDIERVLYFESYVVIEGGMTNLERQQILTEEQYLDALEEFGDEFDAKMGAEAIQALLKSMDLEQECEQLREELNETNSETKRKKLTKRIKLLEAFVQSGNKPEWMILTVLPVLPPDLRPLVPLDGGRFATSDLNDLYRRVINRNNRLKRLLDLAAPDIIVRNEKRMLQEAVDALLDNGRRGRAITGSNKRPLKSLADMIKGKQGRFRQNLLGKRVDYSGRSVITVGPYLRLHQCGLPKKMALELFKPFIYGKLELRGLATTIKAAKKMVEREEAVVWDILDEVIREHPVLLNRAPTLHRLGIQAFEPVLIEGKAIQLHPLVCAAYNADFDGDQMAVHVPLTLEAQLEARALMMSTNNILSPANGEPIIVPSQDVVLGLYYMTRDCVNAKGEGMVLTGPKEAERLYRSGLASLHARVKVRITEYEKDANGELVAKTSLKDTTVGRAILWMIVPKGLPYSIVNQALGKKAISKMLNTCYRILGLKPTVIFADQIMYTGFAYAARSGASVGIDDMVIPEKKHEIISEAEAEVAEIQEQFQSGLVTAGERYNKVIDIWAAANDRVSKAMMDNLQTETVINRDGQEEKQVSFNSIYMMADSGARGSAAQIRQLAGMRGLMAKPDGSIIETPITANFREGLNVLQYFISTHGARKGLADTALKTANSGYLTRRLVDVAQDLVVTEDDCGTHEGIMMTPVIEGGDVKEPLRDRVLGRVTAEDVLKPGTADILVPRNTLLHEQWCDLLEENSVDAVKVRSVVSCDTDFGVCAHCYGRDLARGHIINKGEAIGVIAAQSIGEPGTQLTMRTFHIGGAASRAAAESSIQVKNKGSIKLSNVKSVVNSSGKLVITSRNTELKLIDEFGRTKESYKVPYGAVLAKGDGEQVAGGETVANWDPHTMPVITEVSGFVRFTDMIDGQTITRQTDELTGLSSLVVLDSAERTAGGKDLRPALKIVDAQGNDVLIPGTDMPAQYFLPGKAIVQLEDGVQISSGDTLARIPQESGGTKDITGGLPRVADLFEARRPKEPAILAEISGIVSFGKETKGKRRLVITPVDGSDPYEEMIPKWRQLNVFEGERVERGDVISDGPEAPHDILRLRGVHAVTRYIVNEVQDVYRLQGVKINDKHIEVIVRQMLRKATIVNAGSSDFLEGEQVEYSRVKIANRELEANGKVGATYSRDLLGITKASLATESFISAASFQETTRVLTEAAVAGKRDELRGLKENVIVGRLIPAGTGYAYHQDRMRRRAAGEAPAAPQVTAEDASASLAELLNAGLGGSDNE

B1: IsrA (IS61, McaS) (structured_RNA)
RNA: ACCGGCGCAGAGGAGACAAUGCCGGAUUUAAGACGCGGAUGCACUGCUGUGUGUACUGUAGAGUCUGGCGGAUGUCGACAGACUCUAUUUUUUU
binds: all assays above
